{"source": "paper PMC3581772", "about": "“Protease-activated alpha-2-macroglobulin can inhibit amyloid formation via two distinct mechanisms” (Febs Letters, 2013)", "proteins": {"B1": {"name": "I59T human lysozyme (natural protein, UniProt P61626 19-148, looked up)", "chain": "KVFERCELARTLKRLGMDGYRGISLANWMCLAKWESGYNTRATNYNAGDRSTDYGIFQTNSRYWCNDGKTPGAVNACHLSCSALLQDNIADAVACAKRVVRDPQGIRAWVAWRNRCQNRDVRQYVQGCGV", "notes": "human lysozyme, non-natural variant I59T; monomer 14.7 kDa; also called I59T lysozyme; source: expressed and purified as previously described [16]"}}, "target": "the molecule itself", "assay": "thioflavin T fluorescence of fibril formation; I59T lysozyme 6.8 μM, 0.1 M citrate buffer pH 5.0, 25 μM ThT, 60 °C, with stirring; self-association into fibrils"}
{"protein": "B1", "values": [{"measurement": "binding result", "result": "binds"}]}
